Results as given in ChEMBL document CHEMBL1137660, “Molecular and biochemical characterization of the chromosome-encoded class A beta-lactamase BCL-1 from Bacillus clausii” (Antimicrob Agents Chemother, 2007).

Tests used:
[1] = substrate: CC(=O)OCC1=C(C(=O)O)N2C(=O)[C@@H](NC(=O)CCC[C@@H](N)C(=O)O)[C@H]2SC1; assay: (§1) Activity of Bacillus cereus beta-lactamase BcI
[2] = substrate: CC1(C)S[C@@H]2[C@H](NC(=O)Cc3ccccc3)C(=O)N2[C@H]1C(=O)O; assay: as §1
[3] = substrate: CO/N=C(\C(=O)N[C@@H]1C(=O)N2C(C(=O)[O-])=C(C[N+]3(C)CCCC3)CS[C@H]12)c1csc(N)n1; assay: (§2) Activity of Bacillus anthracis beta-lactamase Bla1
[4] = substrate: CO/N=C(\C(=O)N[C@@H]1C(=O)N2C(C(=O)O)=C(COC(C)=O)CS[C@H]12)c1csc(N)n1; assay: as §2
[5] = substrate: CC(C)(O/N=C(\C(=O)N[C@@H]1C(=O)N2C(C(=O)[O-])=C(C[n+]3ccccc3)CS[C@H]12)c1csc(N)n1)C(=O)O; assay: as §2
[6] = substrate: O=C(Cc1cccs1)N[C@@H]1C(=O)N2C(C(=O)[O-])=C(C[n+]3ccccc3)CS[C@H]12; assay: Ratio of Kcat to Km for Bacillus anthracis beta-lactamase Bla1
[7] = substrate: CC1(C)S[C@@H]2[C@H](NC(=O)[C@H](N)c3ccc(O)cc3)C(=O)N2[C@H]1C(=O)O; settings: Shouchella clausii; NR
[8] = substrate: CO/N=C(\C(=O)N[C@@H]1C(=O)N2C(C(=O)[O-])=C(C[N+]3(C)CCCC3)CS[C@H]12)c1csc(N)n1; settings: Shouchella clausii; NR
[9] = substrate: CO/N=C(\C(=O)N[C@@H]1C(=O)N2C(C(=O)O)=C(COC(C)=O)CS[C@H]12)c1csc(N)n1; settings: Shouchella clausii; NR
[10] = substrate: CO/N=C(\C(=O)N[C@@H]1C(=O)N2C(C(=O)[O-])=C(C[n+]3cccc4c3CCC4)CS[C@H]12)c1csc(N)n1; settings: Shouchella clausii; NR
[11] = substrate: CC(C)(O/N=C(\C(=O)N[C@@H]1C(=O)N2C(C(=O)[O-])=C(C[n+]3ccccc3)CS[C@H]12)c1csc(N)n1)C(=O)O; settings: Shouchella clausii; NR
[12] = substrate: CC(=O)OCC1=C(C(=O)O)N2C(=O)[C@@H](NC(=O)Cc3cccs3)[C@H]2SC1; settings: Shouchella clausii; NR
[13] = substrate: CCN1CCN(C(=O)N[C@@H](C(=O)N[C@@H]2C(=O)N3[C@@H]2SC(C)(C)[C@@H]3C(=O)O)c2ccccc2)C(=O)C1=O; settings: Shouchella clausii; NR
[14] = substrate: O=C(Cc1cccs1)N[C@@H]1C(=O)N2C(C(=O)[O-])=C(C[n+]3ccccc3)CS[C@H]12; settings: Shouchella clausii; NR
[15] = substrate: CC1(C)S[C@@H]2[C@H](NC(=O)[C@H](C(=O)O)c3ccsc3)C(=O)N2[C@H]1C(=O)O; settings: Shouchella clausii; NR
[16] = substrate: CO/N=C(\C(=O)N[C@@H]1C(=O)N2C(C(=O)O)=C(CSc3nc(=O)c(O)nn3C)CS[C@H]12)c1csc(N)n1; settings: Shouchella clausii; NR
[17] = substrate: CO/N=C(\C(=O)N[C@@H]1C(=O)N2C(C(=O)O)=C(COC(N)=O)CS[C@H]12)c1ccco1; settings: Shouchella clausii; NR
[18] = substrate: CC1(C)S[C@@H]2[C@H](NC(=O)Cc3ccccc3)C(=O)N2[C@H]1C(=O)O; settings: Shouchella clausii; NR
[19] = substrate: CC1(C)S[C@@H]2[C@H](NC(=O)[C@H](N)c3ccc(O)cc3)C(=O)N2[C@H]1C(=O)O; settings: Shouchella clausii; NR; remark: listed apart in the source
[20] = substrate: CO/N=C(\C(=O)N[C@@H]1C(=O)N2C(C(=O)[O-])=C(C[N+]3(C)CCCC3)CS[C@H]12)c1csc(N)n1; settings: Shouchella clausii; NR; remark: listed apart in the source
[21] = substrate: CO/N=C(\C(=O)N[C@@H]1C(=O)N2C(C(=O)O)=C(COC(C)=O)CS[C@H]12)c1csc(N)n1; settings: Shouchella clausii; NR; remark: listed apart in the source
[22] = substrate: C[C@H]1[C@H](NC(=O)/C(=N\OC(C)(C)C(=O)O)c2csc(N)n2)C(=O)N1S(=O)(=O)O; settings: Shouchella clausii; NR
[23] = substrate: CO/N=C(\C(=O)N[C@@H]1C(=O)N2C(C(=O)[O-])=C(C[n+]3cccc4c3CCC4)CS[C@H]12)c1csc(N)n1; settings: Shouchella clausii; NR; remark: listed apart in the source
[24] = substrate: CO[C@@]1(NC(=O)C(C(=O)O)c2ccc(O)cc2)C(=O)N2C(C(=O)O)=C(CSc3nnnn3C)CO[C@@H]21; settings: Shouchella clausii; NR
[25] = substrate: CC(C)(O/N=C(\C(=O)N[C@@H]1C(=O)N2C(C(=O)[O-])=C(C[n+]3ccccc3)CS[C@H]12)c1csc(N)n1)C(=O)O; settings: Shouchella clausii; NR; remark: listed apart in the source
[26] = substrate: CC(=O)OCC1=C(C(=O)O)N2C(=O)[C@@H](NC(=O)Cc3cccs3)[C@H]2SC1; settings: Shouchella clausii; NR; remark: listed apart in the source
[27] = substrate: CCN1CCN(C(=O)N[C@@H](C(=O)N[C@@H]2C(=O)N3[C@@H]2SC(C)(C)[C@@H]3C(=O)O)c2ccccc2)C(=O)C1=O; settings: Shouchella clausii; NR; remark: listed apart in the source
[28] = substrate: O=C(Cc1cccs1)N[C@@H]1C(=O)N2C(C(=O)[O-])=C(C[n+]3ccccc3)CS[C@H]12; settings: Shouchella clausii; NR; remark: listed apart in the source
[29] = substrate: CC1(C)S[C@@H]2[C@H](NC(=O)[C@H](C(=O)O)c3ccsc3)C(=O)N2[C@H]1C(=O)O; settings: Shouchella clausii; NR; remark: listed apart in the source
[30] = substrate: CO/N=C(\C(=O)N[C@@H]1C(=O)N2C(C(=O)O)=C(CSc3nc(=O)c(O)nn3C)CS[C@H]12)c1csc(N)n1; settings: Shouchella clausii; NR; remark: listed apart in the source
[31] = substrate: CO/N=C(\C(=O)N[C@@H]1C(=O)N2C(C(=O)O)=C(COC(N)=O)CS[C@H]12)c1ccco1; settings: Shouchella clausii; NR; remark: listed apart in the source
[32] = substrate: CC1(C)S[C@@H]2[C@H](NC(=O)Cc3ccccc3)C(=O)N2[C@H]1C(=O)O; settings: Shouchella clausii; NR; remark: listed apart in the source
[33] = substrate: CO[C@@]1(NC(=O)Cc2cccs2)C(=O)N2C(C(=O)O)=C(COC(N)=O)CS[C@@H]21; settings: Shouchella clausii; NR

B1: Beta-lactamase 1 (Bacillus cereus), P00809 (protein)
chain: MILKNKRMLKIGICVGILGLSITSLEAFTGESLQVEAKEKTGQVKHKNQATHKEFSQLEKKFDARLGVYAIDTGTNQTISYRPNERFAFASTYKALAAGVLLQQNSIDSLNEVITYTKEDLVDYSPVTEKHVDTGMKLGEIAEAAVRSSDNTAGNILFNKIGGPKGYEKALRHMGDRITMSNRFETELNEAIPGDIRDTSTAKAIATNLKAFTVGNALPAEKRKILTEWMKGNATGDKLIRAGIPTDWVVGDKSGAGSYGTRNDIAVVWPPNSAPIIVLISSKDEKEAIYNDQLIAEATKVIVKGS
kcat [1]: 0.2 s⁻¹ | Km [2]: 65 µM | kcat [2]: 2200 s⁻¹

B2: Beta-lactamase (Bacillus anthracis), Q93T42 (protein)
chain: MIVLKNKKMLKIGMCVGILGLSITSLVTFTGGALQVEAKEKTGQVKHKNQATHKEFSQLEKKFDARLGVYAIDTGTNQTIAYRPNERFAFASTYKALAAGVLLQQNSTKKLDEVITYTKEDLVDYSPVTEKHVDTGMTLGEIAEAAVRYSDNTAGNILFHKIGGPKGYEKALRQMGDRVTMSDRFETELNEAIPGDIRDTSTAKAIATNLKAFTAGNALPNHKRNILTKWMKGNATGDKLIRAGVPTNWVVADKSGAGSYGTRNDIAIVWPPNRAPIIIAILSSKDEKGATYDNQLIAEAAEVIVNAFR
kcat [3]: < 0.2 s⁻¹ | kcat [4]: < 0.2 s⁻¹ | kcat [5]: < 0.2 s⁻¹ | kcat/Km [6]: 1.1e+06 M⁻¹ s⁻¹

B3: Beta-lactamase (Bacillus clausii), A8RR46 (protein)
chain: MKRSFFMLKTKITSSILVGACLLIGCSNGNEQPVSNEPEPEESVETGEAVFKALEEEYAARLGVFALDTGTGQTVSYRSDERFTYASAHKPLAVAVLLQQKSIEELEQLITYSADDLVNYNPITENHVETGMTLRELSDASIRYSDNTAANFIFDEIGGPEGFKEGLRAIGDTVTEPERIEPELNHVEPGEIQDTSTPEALAKSLQEFALGEALPADKQELLIDWLIGNTTGDALIRAGVPEGWEVGDKTGAGSYGTRNDIAILWPPEKEPIILAVLSSKDEKDAEYDDELIAKATEEVINLLAQTE
kcat/Km [7]: 4e+06 M⁻¹ s⁻¹ | kcat/Km [8]: < 40000 M⁻¹ s⁻¹ | kcat/Km [9]: 30000 M⁻¹ s⁻¹ | kcat/Km [10]: 1e+06 M⁻¹ s⁻¹ | kcat/Km [11]: < 3000 M⁻¹ s⁻¹ | kcat/Km [12]: 1.5e+06 M⁻¹ s⁻¹ | kcat/Km [13]: 2e+06 M⁻¹ s⁻¹ | kcat/Km [14]: 2.5e+06 M⁻¹ s⁻¹ | kcat/Km [15]: 1e+06 M⁻¹ s⁻¹ | kcat/Km [16]: 30000 M⁻¹ s⁻¹ | kcat/Km [17]: 100000 M⁻¹ s⁻¹ | kcat/Km [18]: 8e+06 M⁻¹ s⁻¹ | Km [19]: 22 µM | kcat [19]: 85 s⁻¹ | Km [20]: > 1000 µM | kcat [20]: > 40 s⁻¹ | Km [21]: 790 µM | kcat [21]: 22 s⁻¹ | kcat [22]: < 0.3 s⁻¹ | Km [23]: 136 µM | kcat [23]: 95 s⁻¹ | kcat [24]: < 0.01 s⁻¹ | Km [25]: 1000 µM | kcat [25]: > 3.3 s⁻¹ | Km [26]: 15 µM | kcat [26]: 22 s⁻¹ | Km [27]: 21 µM | kcat [27]: 38 s⁻¹ | Km [28]: 45 µM | kcat [28]: 115 s⁻¹ | Km [29]: 6 µM | kcat [29]: 5 s⁻¹ | Km [30]: 950 µM | kcat [30]: 30 s⁻¹ | Km [31]: 105 µM | kcat [31]: 15 s⁻¹ | Km [32]: 12 µM | kcat [32]: 97 s⁻¹ | Km [33]: < 0.01 µM | kcat [33]: < 0.01 s⁻¹
